Assays:
P6.A-EYFP = target: T1, P6.A-EYFP (Arabidopsis thaliana); assay: cell-based or functional assay
T1 chain: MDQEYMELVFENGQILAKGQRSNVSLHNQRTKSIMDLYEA

[1] = target: T2, AtPIF3 (1-100)-EYFP, P3.100 (Arabidopsis thaliana, UniProt O80536 1-100); assay: cell-based or functional assay
T2 sequence (looked up): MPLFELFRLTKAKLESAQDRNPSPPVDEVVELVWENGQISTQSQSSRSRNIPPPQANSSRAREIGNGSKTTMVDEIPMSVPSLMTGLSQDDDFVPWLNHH

[2] = target: T3, AtPIF6 (1-100)-EYFP, P6.100 (Arabidopsis thaliana, UniProt Q8L5W7 1-100); assay: cell-based or functional assay
T3 sequence (looked up): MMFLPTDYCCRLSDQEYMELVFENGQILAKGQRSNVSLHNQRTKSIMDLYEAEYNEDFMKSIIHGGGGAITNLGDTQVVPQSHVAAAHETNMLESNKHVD

P3.fus-EYFP = target: T4, P3.fus-EYFP (Arabidopsis thaliana); assay: SEC; 50 µM AtPhyB PCM + 10 µM AtPIF-EYFP (5:1), illuminated with red light (650 nm, 2 min; results say 640 nm), Pfr state; Superdex 200 Increase 10/300 GL; 67 mM sodium phosphate pH 8.0, 200 mM NaCl; settings: both partners purified
T4 chain: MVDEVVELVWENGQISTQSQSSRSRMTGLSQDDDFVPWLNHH

P6.fus-EYFP = target: T5, P6.fus-EYFP (Arabidopsis thaliana); assay: as above; settings: both partners purified
T5 chain: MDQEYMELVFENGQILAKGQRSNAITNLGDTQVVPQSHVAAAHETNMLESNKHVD

[3] = target: T6, P3 (AtPIF3 1-100 without the N-terminal region preceding APB.A)-EYFP (Arabidopsis thaliana); assay: as above; settings: both partners purified
T6 chain: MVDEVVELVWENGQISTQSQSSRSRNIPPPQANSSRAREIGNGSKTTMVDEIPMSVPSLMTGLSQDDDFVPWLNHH

B1: Arabidopsis thaliana phytochrome B photosensory core module (AtPhyB PCM) (domain or fragment, UniProt P14713 1-651, looked up)
chain: MVSGVGGSGGGRGGGRGGEEEPSSSHTPNNRRGGEQAQSSGTKSLRPRSNTESMSKAIQQYTVDARLHAVFEQSGESGKSFDYSQSLKTTTYGSSVPEQQITAYLSRIQRGGYIQPFGCMIAVDESSFRIIGYSENAREMLGIMPQSVPTLEKPEILAMGTDVRSLFTSSSSILLERAFVAREITLLNPVWIHSKNTGKPFYAILHRIDVGVVIDLEPARTEDPALSIAGAVQSQKLAVRAISQLQALPGGDIKLLCDTVVESVRDLTGYDRVMVYKFHEDEHGEVVAESKRDDLEPYIGLHYPATDIPQASRFLFKQNRVRMIVDCNATPVLVVQDDRLTQSMCLVGSTLRAPHGCHSQYMANMGSIASLAMAVIINGNEDDGSNVASGRSSMRLWGLVVCHHTSSRCIPFPLRYACEFLMQAFGLQLNMELQLALQMSEKRVLRTQTLLCDMLLRDSPAGIVTQSPSIMDLVKCDGAAFLYHGKYYPLGVAPSEVQIKDVVEWLLANHADSTGLSTDSLGDAGYPGAAALGDAVCGMAVAYITKRDFLFWFRSHTAKEIKWGGAKHHPEDKDDGQRMHPRSSFQAFLEVVKSRSQPWETAEMDAIHSLQLILRDSFKESEAAMNSKVVDGVVQPCRDMAGEQGIDELGA
modifications: covalently incorporated bilin chromophore (PCB; co-expressed Synechocystis sp. heme oxygenase 1 and pcyA)
notes: A. thaliana phytochrome B, photosensory core module (PAS-GAF-PHY with N-terminal extension), residues 1-651; Pr state (far-red light or dark) and Pfr state (red light; Pfr/Pr about 0.56/0.44) are told apart by the assays; In the cell experiments other constructs were used (PCM-VP16; PCM 1-650 with CAAX); source: E. coli BL21(DE3), plasmid pDG282, purified (Ni-NTA IMAC, anion exchange)
With B1 the “normalized SEAP reporter expression in CHO-K1 cells, split transcription factor (AtPhyB PCM-VP16 + E-protein-AtPIF variant), red light against darkness” value (“normalized SEAP reporter expression” below) (P6.A-EYFP) was 43 fold, the “normalized SEAP reporter expression” value [1] was 10 fold and the “normalized SEAP reporter expression” value [2] was 4 fold. The “stoichiometry N” value (P3.fus-EYFP) was 1, the “stoichiometry N” value (P6.fus-EYFP) was 1 and the “stoichiometry N” value [3] was 1.
